Results reported in patent US20150274831A1 (Hoffmann-La Roche, published 2015).

Molecular target: CSF-1R on cynomolgous monocytes (native receptor of CD14-enriched peripheral blood monocytes) (cynomolgous)
Test: cell-based or functional assay

Binder	% inhibition (of survival) = (100% - % survival) (CellTiterGlo; cynomolgous monocytes with 150 ng/ml huCSF-1; 5 µg/ml antibody) [%]	% survival (CellTiterGlo; cynomolgous monocytes with 150 ng/ml huCSF-1; 5 µg/ml antibody) [%]
Mab 2F11 (antibody, V domains shown) VH: QVQLKESGPGLVAPSQSLSITCTVSGFSLTTYDISWIRQSPGKGLEWLGVIWTDGGTNYNSPFMSRLSIRKDNSKSQVFLKMNRLQTDDTAIYYCVRDQRLYFDVWGAGTTVTVSS VL: NIVMTQSPKSMSMSVGERVTLNCKASEDVNTYVSWYQQQPEQSPKLLIYGASNRYTGVPDRFTGGGSTTDFTLTISSVQAEDLADYFCGQSFSYPTFGTGTKLEIK	96	4
Mab 1G10 (antibody, V domains shown) VH: RVQLKESGPGLVAPSQSLSITCTVSGFSLTSYDISWIRQSPGKGLEWLGVIWSGGGTNYNSPFMSRLRISKDDSRSQVFLKVNRLQTDDTAIYYCVRDLRLYFDVWGAGTTVTVSS VL: KIVMTQSPKSMSVSVGERVSLSCKASEDVGTYVSWYQQKPEQSPKLLIYGSSNRYTGVPDRFTGSGSATDFTLTISSVQAEDLADYSCGQSFTYPTFGTGTKLEIK	98	2
Mab 2E10 (antibody, V domains shown) VH: QVQLKESGPGLVAPSKSLSITCTVSGSSLDSFDISWIRQSPGKGLEWLGVIWTGGGTNYNSGFMSRLRITKDNSKSQVLLKMNSLQSDDTAIYYCVRDPRLYFDVWGAGTTVTVSS VL: NIVMTQSPKSMSMSVGERVTLSCKASEDVVTYVSWYQQKPDQSPKLLIYGASNRYTGVPDRFTGSGSATDFTLTISSVQAEDLADYYCGQTFSYPTFGTGTKLEIK	83	17
Mab 2H7 (antibody, V domains shown) VH: QVQLKESGPGLVAPSKSLSITCTVSGSSLDSFDISWIRQPPGKGLEWLGVIWTGGGTNYNSGFMSRLRISKDNSKSQVFLKMSSLQSDDTAIYYCVRDPRLYFDVWGAGTTVTVSS VL: NIVMTQSPKSMSMSVGERVTLSCKASEDVVTYVSWYQQKPEQSPKLLIYGASNRYTGVPDRFTGSGSATDFTLTISSIQAEDLADYYCGQTFSYPTFGTGTKLEIK	92	8
